# ± gives the standard deviation of the averaged measurements.
# Legend:
# hTERT-HMEC = assay: percentage of EdU-negative (G0-arrested) nuclei per well, 72 h; higher = more G0 arrest; details: reference: sequence is the full UniProt precursor, the tested protein was the secreted form or ectodomain
# MCF7 = assay: as above; details: reference: sequence is the full UniProt precursor, the tested protein was the secreted form or ectodomain
# [1] = protein concentration 0.00828571 µM
# [2] = protein concentration 0.0828571 µM
# [3] = protein concentration 0.0085 µM
# [4] = protein concentration 0.0225 µM
# [5] = protein concentration 0.0065 µM
# [6] = protein concentration 0.0357143 µM
# [7] = protein concentration 0.357143 µM
# [8] = protein concentration 0.03125 µM
# [9] = protein concentration 0.3125 µM
# [10] = protein concentration 0.0294286 µM
# [11] = protein concentration 0.294286 µM
# 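Also: secreted proteins added to cultured cells, EdU pulse at the end, nuclei found by Hoechst imaging, EdU status from nuclear versus surrounding ring intensity ratio, PBS as neutral control.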
# Q8IWL2, sequence (chain, as listed by the source): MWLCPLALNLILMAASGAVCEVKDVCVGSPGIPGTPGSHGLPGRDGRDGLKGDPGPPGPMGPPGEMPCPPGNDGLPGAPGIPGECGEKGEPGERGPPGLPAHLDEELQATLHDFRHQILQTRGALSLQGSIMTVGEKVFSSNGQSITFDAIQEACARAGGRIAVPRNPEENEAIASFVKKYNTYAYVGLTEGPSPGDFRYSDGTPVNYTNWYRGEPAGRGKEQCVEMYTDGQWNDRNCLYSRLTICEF
substance,measurement,setting,value
MWAQLLLGMLALSPAIAEELPNYLVTLPARLNFPSVQKVCLDLSPGYSDVKFTVTLETKDKTQKLLEYSGLKKRHLHCISFLVPPPAGGTEEVATIRVSGVGNNISFEEKKKVLIQRQGNGTFVQTDKPLYTPGQQVYFRIVTMDSNFVPVNDKYSMVELQDPNSNRIAQWLEVVPEQGIVDLSFQLAPEAMLGTYTVAVAEGKTFGTFSVEEYVLPKFKVEVVEPKELSTVQESFLVKICCRYTYGKPMLGAVQVSVCQKANTYWYREVEREQLPDKCRNLSGQTDKTGCFSAPVDMATFDLIGYAYSHQINIVATVVEEGTGVEANATQNIYISPQMGSMTFEDTSNFYHPNFPFSGKIRVRGHDDSFLKNHLVFLVIYGTNGTFNQTLVTDNNGLAPFTLETSGWNGTDVSLEGKFQMEDLVYNPEQVPRYYQNAYLHLRPFYSTTRSFLGIHRLNGPLKCGQPQEVLVDYYIDPADASPDQEISFSYYLIGKGSLVMEGQKHLNSKKKGLKASFSLSLTFTSRLAPDPSLVIYAIFPSGGVVADKIQFSVEMCFDNQVSLGFSPSQQLPGAEVELQLQAAPGSLCALRAVDESVLLLRPDRELSNRSVYGMFPFWYGHYPYQVAEYDQCPVSGPWDFPQPLIDPMPQGHSSQRSIIWRPSFSEGTDLFSFFRDVGLKILSNAKIKKPVDCSHRSPEYSTAMGAGGGHPEAFESSTPLHQAEDSQVRQYFPETWLWDLFPIGNSGKEAVHVTVPDAITEWKAMSFCTSQSRGFGLSPTVGLTAFKPFFVDLTLPYSVVRGESFRLTATIFNYLKDCIRVQTDLAKSHEYQLESWADSQTSSCLCADDAKTHHWNITAVKLGHINFTISTKILDSNEPCGGQKGFVPQKGRSDTLIKPVLVKPEGVLVEKTHSSLLCPKGKVASESVSLELPVDIVPDSTKAYVTVLGDIMGTALQNLDGLVQMPSGCGEQNMVLFAPIIYVLQYLEKAGLLTEEIRSRAVGFLEIGYQKELMYKHSNGSYSAFGERDGNGNTWLTAFVTKCFGQAQKFIFIDPKNIQDALKWMAGNQLPSGCYANVGNLLHTAMKGGVDDEVSLTAYVTAALLEMGKDVDDPMVSQGLRCLKNSATSTTNLYTQALLAYIFSLAGEMDIRNILLKQLDQQAIISGESIYWSQKPTPSSNASPWSEPAAVDVELTAYALLAQLTKPSLTQKEIAKATSIVAWLAKQHNAYGGFSSTQDTVVALQALAKYATTAYMPSEEINLVVKSTENFQRTFNIQSVNRLVFQQDTLPNVPGMYTLEASGQGCVYVQTVLRYNILPPTNMKTFSLSVEIGKARCEQPTSPRSLTLTIHTSYVGSRSSSNMAIVEVKMLSGFSPMEGTNQLLLQQPLVKKVEFGTDTLNIYLDELIKNTQTYTFTISQSVLVTNLKPATIKVYDYYLPDEQATIQYSDPCE [A8K2U0],percentage of EdU-negative,hTERT-HMEC; [1],5.09 ± 0.24%
same,percentage of EdU-negative,hTERT-HMEC; [2],5.43 ± 0.39%
same,percentage of EdU-negative,MCF7; [1],23.3 ± 1.1%
same,percentage of EdU-negative,MCF7; [2],29.5 ± 1.8%
MVSQALRLLCLLLGLQGCLAAGGVAKASGGETRDMPWKPGPHRVFVTQEEAHGVLHRRRRANAFLEELRPGSLERECKEEQCSFEEAREIFKDAERTKLFWISYSDGDQCASSPCQNGGSCKDQLQSYICFCLPAFEGRNCETHKDDQLICVNENGGCEQYCSDHTGTKRSCRCHEGYSLLADGVSCTPTVEYPCGKIPILEKRNASKPQGRIVGGKVCPKGECPWQVLLLVNGAQLCGGTLINTIWVVSAAHCFDKIKNWRNLIAVLGEHDLSEHDGDEQSRRVAQVIIPSTYVPGTTNHDIALLRLHQPVVLTDHVVPLCLPERTFSERTLAFVRFSLVSGWGQLLDRGATALELMVLNVPRLMTQDCLQQSRKVGDSPNITEYMFCAGYSDGSKDSCKGDSGGPHATHYRGTWYLTGIVSWGQGCATVGHFGVYTRVSQYIEWLQKLMRSEPRPGVLLRAPFP,percentage of EdU-negative,hTERT-HMEC; [3],4.77 ± 0.36%
same,percentage of EdU-negative,hTERT-HMEC; protein concentration 0.085 µM,5.93 ± 1.7%
same,percentage of EdU-negative,MCF7; [3],24.3 ± 4.2%
same,percentage of EdU-negative,MCF7; protein concentration 0.085 µM,24.2 ± 0.32%
MSPHPTALLGLVLCLAQTIHTQEEDLPRPSISAEPGTVIPLGSHVTFVCRGPVGVQTFRLERDSRSTYNDTEDVSQASPSESEARFRIDSVREGNAGLYRCIYYKPPKWSEQSDYLELLVKESSGGPDSPDTEPGSSAGPTQRPSDNSHNEHAPASQGLKAEHLYILIGVSVVFLFCLLLLVLFCLHRQNQIKQGPPRSKDEEQKPQQRPDLAVDVLERTADKATVNGLPEKDRETDTSALAAGSSQEVTYAQLDHWALTQRTARAVSPQSTKPMAESITYAAVARH [Q6GTX8],percentage of EdU-negative,hTERT-HMEC; [4],5.38 ± 0.85%
same,percentage of EdU-negative,hTERT-HMEC; protein concentration 0.225 µM,5.62 ± 0.45%
same,percentage of EdU-negative,MCF7; [4],23.2 ± 1.6%
same,percentage of EdU-negative,MCF7; protein concentration 0.225 µM,24.29 ± 0.027%
MARPVRGGLGAPRRSPCLLLLWLLLLRLEPVTAAAGPRAPCAAACTCAGDSLDCGGRGLAALPGDLPSWTRSLNLSYNKLSEIDPAGFEDLPNLQEVYLNNNELTAVPSLGAASSHVVSLFLQHNKIRSVEGSQLKAYLSLEVLDLSLNNITEVRNTCFPHGPPIKELNLAGNRIGTLELGAFDGLSRSLLTLRLSKNRITQLPVRAFKLPRLTQLDLNRNRIRLIEGLTFQGLNSLEVLKLQRNNISKLTDGAFWGLSKMHVLHLEYNSLVEVNSGSLYGLTALHQLHLSNNSIARIHRKGWSFCQKLHELVLSFNNLTRLDEESLAELSSLSVLRLSHNSISHIAEGAFKGLRSLRVLDLDHNEISGTIEDTSGAFSGLDSLSKLTLFGNKIKSVAKRAFSGLEGLEHLNLGGNAIRSVQFDAFVKMKNLKELHISSDSFLCDCQLKWLPPWLIGRMLQAFVTATCAHPESLKGQSIFSVPPESFVCDDFLKPQIITQPETTMAMVGKDIRFTCSAASSSSSPMTFAWKKDNEVLTNADMENFVHVHAQDGEVMEYTTILHLRQVTFGHEGRYQCVITNHFGSTYSHKARLTVNVLPSFTKTPHDITIRTTTMARLECAATGHPNPQIAWQKDGGTDFPAARERRMHVMPDDDVFFITDVKIDDAGVYSCTAQNSAGSISANATLTVLETPSLVVPLEDRVVSVGETVALQCKATGNPPPRITWFKGDRPLSLTERHHLTPDNQLLVVQNVVAEDAGRYTCEMSNTLGTERAHSQLSVLPAAGCRKDGTTVGIFTIAVVSSIVLTSLVWVCIIYQTRKKSEEYSVTNTDETVVPPDVPSYLSSQGTLSDRQETVVRTEGGPQANGHIESNGVCPRDASHFPEPDTHSVACRQPKLCAGSAYHKEPWKAMEKAEGTPGPHKMEHGGRVVCSDCNTEVDCYSRGQAFHPQPVSRDSAQPSAPNGPEPGGSDQEHSPHHQCSRTAAGSCPECQGSLYPSNHDRMLTAVKKKPMASLDGKGDSSWTLARLYHPDSTELQPASSLTSGSPERAEAQYLLVSNGHLPKACDASPESTPLTGQLPGKQRVPLLLAPKS [Q96JA1],percentage of EdU-negative,hTERT-HMEC; [5],4.69 ± 0.4%
same,percentage of EdU-negative,hTERT-HMEC; protein concentration 0.065 µM,8.75 ± 1.2%
same,percentage of EdU-negative,MCF7; [5],25.4 ± 1%
same,percentage of EdU-negative,MCF7; protein concentration 0.065 µM,25.8 ± 3.1%
MAAAWTVVLVTLVLGLAVAGPVPTSKPTTTGKGCHIGRFKSLSPQELASFKKARDALEESLKLKNWSCSSPVFPGNWDLRLLQVRERPVALEAELALTLKVLEAAAGPALEDVLDQPLHTLHHILSQLQACIQPQPTAGPRPRGRLHHWLHRLQEAPKKESAGCLEASVTFNLFRLLTRDLKYVADGNLCLRTSTHPEST [Q8IU54],percentage of EdU-negative,hTERT-HMEC; [6],7.03 ± 0.88%
same,percentage of EdU-negative,hTERT-HMEC; [7],20.5 ± 5.7%
same,percentage of EdU-negative,MCF7; [6],25.7 ± 0.7%
same,percentage of EdU-negative,MCF7; [7],26.7 ± 1.7%
Q8IWL2,percentage of EdU-negative,hTERT-HMEC; [8],5.36 ± 0.08%
same,percentage of EdU-negative,hTERT-HMEC; [9],6.18 ± 0.17%
same,percentage of EdU-negative,MCF7; [8],25.4 ± 0.46%
same,percentage of EdU-negative,MCF7; [9],26.7 ± 0.54%
MASPGCLLCVLGLLLCGAASLELSRPHGDTAKKPIIGILMQKCRNKVMKNYGRYYIAASYVKYLESAGARVVPVRLDLTEKDYEILFKSINGILFPGGSVDLRRSDYAKVAKIFYNLSIQSFDDGDYFPVWGTCLGFEELSLLISGECLLTATDTVDVAMPLNFTGGQLHSRMFQNFPTELLLSLAVEPLTANFHKWSLSVKNFTMNEKLKKFFNVLTTNTDGKIEFISTMEGYKYPVYGVQWHPEKAPYEWKNLDGISHAPNAVKTAFYLAEFFVNEARKNNHHFKSESEEEKALIYQFSPIYTGNISSFQQCYIFD,percentage of EdU-negative,hTERT-HMEC; [10],4.45 ± 0.47%
same,percentage of EdU-negative,hTERT-HMEC; [11],4.7 ± 0.28%
same,percentage of EdU-negative,MCF7; [10],25 ± 0.49%
same,percentage of EdU-negative,MCF7; [11],25.9 ± 2.2%
MRLLCGLWLWLSLLKVLQAQTPTPLPLPPPMQSFQGNQFQGEWFVLGLAGNSFRPEHRALLNAFTATFELSDDGRFEVWNAMTRGQHCDTWSYVLIPAAQPGQFTVDHGVEPGADREETRVVDSDYTQFALMLSRRHTSRLAVLRISLLGRSWLLPPGTLDQFICLGRAQGLSDDNIVFPDVTGWSPQASVC [Q6JVE5],percentage of EdU-negative,hTERT-HMEC; [4],4.84 ± 0.32%
same,percentage of EdU-negative,hTERT-HMEC; protein concentration 0.225 µM,5.1 ± 0.82%
same,percentage of EdU-negative,MCF7; [4],28.3 ± 4%
same,percentage of EdU-negative,MCF7; protein concentration 0.225 µM,32.23 ± 0.31%
MGHRFLRGLLTLLLPPPPLYTRHRMLGPESVPPPKRSRSKLMAPPRIGTHNGTFHCDEALACALLRLLPEYRDAEIVRTRDPEKLASCDIVVDVGGEYDPRRHRYDHHQRSFTETMSSLSPGKPWQTKLSSAGLIYLHFGHKLLAQLLGTSEEDSMVGTLYDKMYENFVEEVDAVDNGISQWAEGEPRYALTTTLSARVARLNPTWNHPDQDTEAGFKRAMDLVQEEFLQRLDFYQHSWLPARALVEEALAQRFQVDPSGEIVELAKGACPWKEHLYHLESGLSPPVAIFFVIYTDQAGQWRIQCVPKEPHSFQSRLPLPEPWRGLRDEALDQVSGIPGCIFVHASGFIGGHRTREGALSMARATLAQRSYLPQIS [Q9HB07],percentage of EdU-negative,hTERT-HMEC; [4],4.42 ± 0.079%
same,percentage of EdU-negative,hTERT-HMEC; protein concentration 0.225 µM,11 ± 1.7%
same,percentage of EdU-negative,MCF7; [4],26.7 ± 1.3%
same,percentage of EdU-negative,MCF7; protein concentration 0.225 µM,27.2 ± 0.95%
MGPPSASPHRECIPWQGLLLTASLLNFWNPPTTAKLTIESMPLSVAEGKEVLLLVHNLPQHLFGYSWYKGERVDGNSLIVGYVIGTQQATPGAAYSGRETIYTNASLLIQNVTQNDIGFYTLQVIKSDLVNEEATGQFHVYQENAPGLPVGAVAGIVTGVLVGVALVAALVCFLLLAKTGRTSIQRDLKEQQPQALAPGRGPSHSSAFSMSPLSTAQAPLPNPRTAASIYEELLKHDTNIYCRMDHKAEVAS,percentage of EdU-negative,hTERT-HMEC; [4],5.43 ± 0.36%
same,percentage of EdU-negative,hTERT-HMEC; protein concentration 0.225 µM,5.03 ± 0.028%
same,percentage of EdU-negative,MCF7; [4],25 ± 3.7%
same,percentage of EdU-negative,MCF7; protein concentration 0.225 µM,25.4 ± 1.4%
MSGGRAPAVLLGGVASLLLSFVWMPALLPVASRLLLLPRVLLTMASGSPPTQPSPASDSGSGYVPGSVSAAFVTCPNEKVAKEIARAVVEKRLAACVNLIPQITSIYEWKGKIEEDSEVLMMIKTQSSLVPALTDFVRSVHPYEVAEVIALPVEQGNFPYLQWVRQVTESVSDSITVLP,percentage of EdU-negative,hTERT-HMEC; [4],4.5 ± 0.32%
same,percentage of EdU-negative,hTERT-HMEC; protein concentration 0.225 µM,5.97 ± 0.34%
same,percentage of EdU-negative,MCF7; [4],25.3 ± 1.7%
same,percentage of EdU-negative,MCF7; protein concentration 0.225 µM,25.2 ± 1.5%
